According to article PMC5034309, “Real-time visualization of conformational changes within single MloK1 cyclic nucleotide-modulated channels” (Nature Communications, 2016):

Biological target: the molecule itself
Assay: high-speed atomic force microscopy (HS-AFM); MloK1 2D crystals in lipid membrane adsorbed on mica; imaging buffer 10 mM Tris pH 7.4, 150 mM KCl, 100 uM cAMP; oscillating mode

B1: MloK1 cyclic nucleotide-modulated channel from Mesorhizobium loti (natural protein, UniProt Q98GN8 1-355, looked up)
chain: MSVLPFLRIYAPLNAVLAAPGLLAVAALTIPDMSGRSRLALAALLAVIWGAYLLQLAATLLKRRAGVVRDRTPKIAIDVLAVLVPLAAFLLDGSPDWSLYCAVWLLKPLRDSTFFPVLGRVLANEARNLIGVTTLFGVVLFAVALAAYVIERDIQPEKFGSIPQAMWWAVVTLSTTGYGDTIPQSFAGRVLAGAVMMSGIGIFGLWAGILATGFYQEVRRGDFVRNWQLVAAVPLFQKLGPAVLVEIVRALRARTVPAGAVICRIGEPGDRMFFVVEGSVSVATPNPVELGPGAFFGEMALISGEPRSATVSAATTVSLLSLHSADFQMLCSSSPEIAEIFRKTALERRGAAASA
notes: MloK1, cyclic nucleotide-modulated potassium channel of Mesorhizobium loti, full-length, wild type; The C-terminal hexahistidine tag was cleaved with thrombin after 2D crystallisation and before HS-AFM; Residues of the thrombin site may remain; also called wild-type MloK1; not shown: His6, C-terminal, cleaved
  stoichiometry N: 4
